From article PMC3861084 (Molecular Biology of the Cell, 2013)

Molecular target: T1, pY14–Cav-1–mRFP (Cav-1–monomeric red fluorescent protein phosphorylated at Tyr-14) (canine, UniProt P33724 1-178, phosphotyrosine at 14)
T1 sequence (looked up): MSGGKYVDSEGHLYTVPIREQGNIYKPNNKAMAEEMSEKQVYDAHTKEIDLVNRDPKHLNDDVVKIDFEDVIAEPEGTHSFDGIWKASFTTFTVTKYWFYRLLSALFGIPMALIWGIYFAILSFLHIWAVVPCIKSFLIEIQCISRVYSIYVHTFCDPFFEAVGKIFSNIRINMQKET
Experiment: far-Western

binding result: binds
B1: GST fused to the Src SH2 domain (domain or fragment, chicken, UniProt P00523 148-251, looked up)
chain: WYFGKITRRESERLLLNPENPRGTFLVRESETTKGAYCLSVSDFDNAKGLNVKHYKIRKLDSGGFYITSRTQFSSLQQLVAYYSKHADGLCHRLTNVCPTSKPQ
